Drawing on the RNAGym collection of RNA variant scans (doi:10.7554/elife.80360), this text covers self-cleavage for 167 variants.

B1: HDV Ribozyme (parent)
chain: GGCCGGCAUGGUCCCAGCCUCCUCGCUGGCGCCGGCUGGGCAACAUUCCGAGGGGACCGUCCCCUCGGUAAUGGCGAAUGGGACCCA

Variants of B1 are the subject of this data set. Kind of data set: self-cleavage, relative activity (ratio to wild type); higher = more cleavage; co-transcriptional.
As for G39A G54A, the self-cleavage turned out to be 0.54. Regarding G39A C84U, the self-cleavage turned out to be 0.321.

Regarding G39A C84A, the self-cleavage stood at 0.415.

For the variant G38U U72G, the self-cleavage turned out to be 0.145.

G38U U72C: the self-cleavage came to 0.0978. As for G39A C44U, the self-cleavage came to 0.185. On to G39A C66G, for which the self-cleavage amounted to 0.437. For G39A C66A the value was 0.441; for G39A U72A, 0.133.

As to G39A G59A, the self-cleavage was found to be 0.426. As to G38U G68U, the self-cleavage is 0.119. Regarding G39C, the self-cleavage stood at 0.245. Turning to G39A, the self-cleavage is 0.51. For G38U U65A the value was 0.292. Regarding G39C A71G, the self-cleavage stood at 0.158.

Consider G39C A71U, for which the self-cleavage worked out at 0.229.

For the variant G39A U47G, the self-cleavage was 0.185.

As to G38U C75U, the self-cleavage was 0.163. G38U C75G: the self-cleavage worked out at 0.0707. As for G38U C48U, the self-cleavage was 0.141. Turning to G38U C48A, the self-cleavage is 0.0978.

Consider G38U C58G, for which the self-cleavage was determined as 0.306. For G38U C58A the value was 0.164; for G39A G76U, 0.873; for G39A G76C, 0.57. For G39C A56C the value was 0.18; for G39C A56U, 0.13. G39C A56G: the self-cleavage turned out to be 0.356.

As for G39A G73C, the self-cleavage stood at 0.205. On to G39A G50C, for which the self-cleavage is 0.504.

In the case of G38U C85G, the self-cleavage was 0.295. G39A C49U: the self-cleavage is 0.519. Regarding G39A C48U, the self-cleavage came to 0.504. Regarding G39A C48A, the self-cleavage amounted to 0.609. For G39A C48G, the self-cleavage turned out to be 0.507.

For the variant G39C A42G, the self-cleavage was 0.0811. G39C A42U: the self-cleavage was found to be 0.227.

For the variant G39A C86G, the self-cleavage is 0.534. Regarding G39A C86U, the self-cleavage is 0.513. Take G39C C41G: the self-cleavage was 0.462. In the case of G39A A51U, the self-cleavage is 0.521.

With G39A A51G, the self-cleavage is 0.458. Take G38U C49G: the self-cleavage came out at 0.0739. As to G38U C49A, the self-cleavage came out at 0.264.

In the case of G38U C61U, the self-cleavage was determined as 0.174. With G39C C62U, the self-cleavage was 0.237.

Take G39A U69C: the self-cleavage stood at 0.609. For G39A U69A the value was 0.443.

As for G39A U69G, the self-cleavage came to 0.305.

On to G39A C62U, for which the self-cleavage was found to be 0.508. Regarding G38U G52A, the self-cleavage came out at 0.305. As to G38U U47A, the self-cleavage stood at 0.109. Consider G39A G53A, for which the self-cleavage came out at 0.632.

Regarding G39A G53C, the self-cleavage turned out to be 0.383.

With G39C C58G, the self-cleavage was 0.277.

With G38U C84U, the self-cleavage amounted to 0.0821. As to G39A G68A, the self-cleavage came out at 0.415.

As for G39A A56G, the self-cleavage turned out to be 0.509. In the case of G38U G73U, the self-cleavage was 0.146. For G38U G73C the value was 0.169; for G38U G73A, 0.149. For G38U G55A, the self-cleavage was found to be 0.137. Turning to G39C A78U, the self-cleavage turned out to be 0.131. For G39C A87G the value was 0.204. On to G39C A87C, for which the self-cleavage amounted to 0.323. For G39A U65C, the self-cleavage turned out to be 0.463. On to G39A U65A, for which the self-cleavage came to 0.396.

Regarding G39A G82A, the self-cleavage is 0.136.

With G39A G82C, the self-cleavage came to 0.128.

In the case of G39C C64G, the self-cleavage came to 0.295. With G39A A43C, the self-cleavage turned out to be 0.185. Take G39A A43G: the self-cleavage was found to be 0.0707. As for G38U C57U, the self-cleavage amounted to 0.126. For G38U C57A the value was 0.323; for G38U C57G, 0.38; for G39A C57A, 0.41. For G39A C57U the value was 0.665; for G39C A77C, 0.0519. Consider G39C A77U, for which the self-cleavage stood at 0.121.

In the case of G38U C64G, the self-cleavage was 0.177. G38U C64U: the self-cleavage came out at 0.25. Take G38U C64A: the self-cleavage worked out at 0.257.

Turning to G39A A45C, the self-cleavage stood at 0.188.

Consider G39A G67C, for which the self-cleavage worked out at 0.665. As for G39A G74A, the self-cleavage came to 0.172. For G39A G74C, the self-cleavage is 0.147. On to G39A A83U, for which the self-cleavage was determined as 0.185.

Regarding G39A A83G, the self-cleavage came out at 0.507.

Take G39A A78U: the self-cleavage was 0.201. Consider G39A A78C, for which the self-cleavage was 0.0563. On to G39A A78G, for which the self-cleavage was 0.131. For G39A C75G the value was 0.143. For G38U U46C, the self-cleavage turned out to be 0.135. As for G38U U46G, the self-cleavage was determined as 0.0755. On to G39A G80U, for which the self-cleavage was 0.178. On to G39A G80A, for which the self-cleavage is 0.229. Turning to G39C C63U, the self-cleavage was determined as 0.369. For G39C C63A the value was 0.259; for G39A C85G, 0.523; for G38U G82U, 0.129. For G38U G82C the value was 0.218; for G38U G59U, 0.284. For G39C A45U, the self-cleavage turned out to be 0.0475. As to G39C A45C, the self-cleavage came to 0.198. For G38U U60A, the self-cleavage stood at 0.175.

In the case of G38U U60C, the self-cleavage came out at 0.374. On to G38U U60G, for which the self-cleavage amounted to 0.13.

As for G39A G52A, the self-cleavage came out at 0.405. As for G39A G52C, the self-cleavage is 0.394. Consider G39A G52U, for which the self-cleavage was 0.478. For G39C C44A the value was 0.271; for G39C C44G, 0.

As for G39C A83C, the self-cleavage came out at 0.243. For the variant G39C A83U, the self-cleavage was found to be 0. For G39C A83G the value was 0.317; for G38U G81U, 0.0545; for G39A U46A, 0.0773. Consider G39A C64G, for which the self-cleavage came out at 0.492. As to G39A C64A, the self-cleavage was 0.458. Regarding G39A C64U, the self-cleavage was found to be 0.484. With G39A A71G, the self-cleavage came to 0.332. As to G39A A71C, the self-cleavage was determined as 0.332. As to G38U U69C, the self-cleavage stood at 0.192. As to G38U U69G, the self-cleavage was 0.272. With G38U U69A, the self-cleavage worked out at 0.256. As to G39C A51C, the self-cleavage came to 0.291.

In the case of G39C A51G, the self-cleavage was determined as 0.38. For the variant G39A C58A, the self-cleavage was 0.475. For G39A C58U the value was 0.443; for G38U C62U, 0.337; for G39A G55C, 0.443. For G39A U60C the value was 0.746; for G39A U60A, 0.268; for G39A A87U, 0.531. In the case of G39A U79A, the self-cleavage was determined as 0.162.

Take G39A U79G: the self-cleavage was found to be 0.262. For G39A U79C the value was 0.0723; for G38U G39A, 0.0415.

As to G38U U79G, the self-cleavage was 0.208. For G38U U79A the value was 0; for G38U U79C, 0.112. For G38U G40U the value was 0.19; for G38U G40A, 0.222; for G38U G53U, 0.342. Regarding G38U G53C, the self-cleavage was 0.434. Turning to G38U G53A, the self-cleavage was determined as 0.369. For G39C C57A, the self-cleavage amounted to 0.141. For G38U G67C the value was 0.197; for G39A G81U, 0.147. On to G39C C61A, for which the self-cleavage amounted to 0.192. Turning to G38U G54U, the self-cleavage was 0.325.

As to G38U G54A, the self-cleavage worked out at 0.227. With G39C C48U, the self-cleavage stood at 0.405.

With G39C C48G, the self-cleavage came to 0.262. Turning to G39A C61G, the self-cleavage stood at 0.337. Regarding G39C A43G, the self-cleavage was found to be 0.147. Consider G39C A43C, for which the self-cleavage turned out to be 0.138. For G39C A43U the value was 0.

With G39A A70U, the self-cleavage is 0.496. For G39A C41A the value was 0.471. As to G39A C41U, the self-cleavage came to 0.793.

As to G39A C41G, the self-cleavage is 0.228. For the variant G38U C86U, the self-cleavage is 0.241. Consider G38U G80A, for which the self-cleavage was found to be 0.102. For G38U G80U the value was 0.0802. As to G38U G80C, the self-cleavage was determined as 0.108. Take G38U C66U: the self-cleavage was found to be 0.175.
